Four substances from article PMC9282857 can be followed below.

What all share (test): ITC; Affinity-ITC calorimeter, 25°C; 20 mM Tris-HCl pH 7.5, 150 mM NaCl, 1 mM DTT; independent binding model
For assay [1], the target named is Rsp5 HECT domain (444-809) (S. cerevisiae) (UniProt P39940).
In assay [2] the target is Pub1 (287-767) (S. pombe) (UniProt Q92462).
In a further assay the target is pub1-F576A (S. pombe) (UniProt Q92462).
The target of assay [3] is Rsp5 WW1-HECT domain (224-809) (S. cerevisiae) (UniProt P39940).

“K63 di-Ub with a distal end ubiquitin mutant (I44A) (from UniProt P0CG63 1-76; P0CG63 1-76) (complex)” gave a Kd in assay [1] of 120000 nM.
For the substance “Any1 conjugated with K63 di-Ub (from UniProt P0CG63 1-76; P0CG63 1-76) (complex)”, the fold enhancement of binding against non-conjugated Any1 in assay [2] came to 8 fold. The substance also had a Kd in the assay with pub1-F576A (S. pombe) of 2300 nM.
“Art1 PY motifs containing region (661-710) (domain or fragment)” had a Kd in assay [3] of 3600 nM.
In turn, Any1 (17-361) (natural protein) had a dissociation constant (Kd) in assay [2] of 2100 nM.
